The record followed here is publication doi:10.1101/488536, “The Ca^2+ sensor protein CMI1 fine tunes root development, auxin distribution and responses” (bioRxiv, 2018).

One assay deals with T1, GST-ICR1 (Arabidopsis, UniProt Q8LE98 1-344).
T1 construct: ICR1, Arabidopsis; source: E. coli Rosetta (DE3), purified (Glutathione sepharose)
T1 sequence (looked up): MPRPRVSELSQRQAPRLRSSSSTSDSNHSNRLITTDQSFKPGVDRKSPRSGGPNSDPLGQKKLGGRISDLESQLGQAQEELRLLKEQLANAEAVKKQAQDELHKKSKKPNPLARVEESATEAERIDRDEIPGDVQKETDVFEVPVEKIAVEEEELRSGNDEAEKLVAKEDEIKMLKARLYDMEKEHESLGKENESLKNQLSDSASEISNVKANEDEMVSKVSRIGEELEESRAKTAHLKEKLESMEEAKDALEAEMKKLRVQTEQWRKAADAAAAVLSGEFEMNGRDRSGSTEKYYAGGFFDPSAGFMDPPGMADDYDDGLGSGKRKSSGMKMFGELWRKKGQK
Nature of the assay: pull-down; GST-ICR1 (1.2 μg) or GST (0.4 μg) on Glutathione sepharose, 0.5 μg His6-CMI1; 20 mM Tris-HCl pH 7.5, 5 mM CaCl2, 0.1 mg/mL BSA, 200 mM NaCl, 1% Triton X-100, RT; wash with 1 M NaCl. Particulars: both partners purified.

Another assay addresses T2, His6-ICR1 (Arabidopsis, UniProt Q8LE98 1-344).
T2 construct: ICR1, Arabidopsis; also called His-ICR1; source: E. coli Rosetta (DE3), purified (Ni-NTA)
T2 sequence (looked up): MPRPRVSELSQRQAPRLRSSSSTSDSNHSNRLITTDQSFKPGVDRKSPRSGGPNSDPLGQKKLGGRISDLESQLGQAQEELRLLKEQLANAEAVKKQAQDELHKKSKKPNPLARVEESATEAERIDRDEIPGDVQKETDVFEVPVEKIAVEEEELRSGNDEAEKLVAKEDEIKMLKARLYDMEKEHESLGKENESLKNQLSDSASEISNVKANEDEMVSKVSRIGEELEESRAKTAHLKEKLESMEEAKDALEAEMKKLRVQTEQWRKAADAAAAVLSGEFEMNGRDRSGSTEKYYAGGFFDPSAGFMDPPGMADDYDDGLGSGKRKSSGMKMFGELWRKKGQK
Nature of the assay: co-IP; His6-CMI1 and His6-ICR1, 1 μg each, in 300 μL Ca^2+ reaction buffer (20 mM Tris-HCl pH 7.5, 5 mM CaCl2, 0.1 mg/mL BSA, 200 mM NaCl, 1% Triton X-100), RT; anti-CMI1 antibodies and Protein A beads; blot with anti poly-His. Particulars: both partners purified.

B1: His6-CMI1 (natural protein, Arabidopsis, UniProt O81831 1-130, looked up)
chain: MASPKSPTRPTQQNPQPNFHDFLPTMAGNLGGEGLIGELCNGFELLMDREKGVITFESLRRNAAAVLGLGDLTDEDVRCMIKEGDFDCDGALNQMEFCVLMFRLSPDLMEASRCLVTEVIEEEFGFTRRH
notes: CMI1, Arabidopsis, At4g27280; also called His-CMI1; source: E. coli Rosetta (DE3), purified (Ni-NTA)
Regarding B1, the binding result with GST-ICR1 and in the assay with His6-ICR1 was “binds” in each case.
